B1: PhERS: glutamyl-tRNA synthetase from P. horikoshii (protein, listed as Pyrococcus horikoshii)
chain: MDVEKIALKHALINAIEHGGKANLKAVIGKVLGENPELRPRAKEIIPIINKVVEEVNSLARDEQLEKLKDIYPEYFEKKEEKKEKKGLPLLPKAEKGKVVTRFAPNPDGAFHLGNARAAILSYEYAKMYGGKFILRFDDTDPKVKRPEPIFYKMIIEDLEWLGIKPDEIVYASDRLEIYYKYAEELIKMGKAYVCTCPPEKFRELRDKGIPCPHRDEPVEVQLERWKKMLNGEYKEGEAVVRIKTDLNHPNPAVRDWPALRIIDNPNHPRTGNKYRVWPLYNFASAIDDHELGVTHIFRGQEHAENETRQRYIYEYFGWEYPVTIHHGRLSIEGVVLSKSKTRKGIEEGKYLGWDDPRLGTIRALRRRGILPEAIKELIIEVGLKKSDATISWENLAAINRKLVDPIANRYFFVADPIPMEVEGAPEFIAEIPLHPDHPERGVRRLKFTPERPVYVSKDDLNLLKPGNFVRLKDLFNVEILEVGDKIRARFYSFEYEIAKKNRWKMVHWVTEGRPCEVIIPEGDELVVRKGLLEKDAKVQVNEIVQFERFGFVRIDRIEGDKVIAIYAHK
B2: AfERS: glutamyl-tRNA synthetase from A. fulgidus (protein, listed as Archaeoglobus fulgidus)
chain: VKEVIMKYVVQNAAKYGKASEKAVMGKVMAENPELRKKAKEVLELVKECITEFEALSEEVRKELIKKYSMDSEAKRELETKKLPELEGAEKGKVVMRFAPNPNGPPTLGSARGIIVNGEYAKMYEGKYIIRFDDTDPRTKRPMIEAYEWYLEDIEWLGYKPDEVIYASRRIPIYYDYARKLIEMGKAYTCFCSQEEFKKFRDSGEECPHRNISVEDTLEVWERMLEGDYEEGEVVLRIKTDMRHKDPAIRDWVAFRIIKESHPLVGDKYVVYPTLDFESAIEDHLLGITHIIRGKDLIDSERRQRYIYEYFGWIYPITKHWGRVKIFEFGKLSTSSIKKDIERGKYEGWDDPRLPTLRAFRRRGFEPEAIKSFFLSLGVGENDVSVSLKNLYAENRKIIDRKANRYFFIWGPVKIEIVNLPEKKEVELPLNPHTGEKRRLKGERTIYVTKDDFERLKGQVVRLKDFCNVLLDEKAEFMGFELEGVKKGKNIIHWLPESEAIKGKVIGEREAEGLVERNAVRDVGKVVQFERFAFCKVESADEELVAVYTHP
B3: MtERS: glutamyl-tRNA synthetase from M. thermoautotrophicum (protein, listed as Methanobacterium thermoautotrophicum)
chain: VVPVEDLVYRYALLNAVKHRGRANPGAVMGAVMSNEPELRKMAPQVKEAVEAAVERVNSLSPEEQQQEMERLGLEITERKQKKRKGLRELAGVKGEVVLRFAPNPSGPLHIGHARAAILNHEYARKYDGRLILRIEDTDPRRVDPEAYDMIPADLEWLGVEWDETVIQSDRMETYYEYTEKLIERGGAYVCTCRPEEFRELKNRGEACHCRSLGFRENLQRWREMFEMKEGSAVVRVKTDLNHPNPAIRDWVSMRIVEAEHPRTGTRYRVYPMMNFSVAVDDHLLGVTHVLRGKDHLANREKQEYLYRHLGWEPPEFIHYGRLKMDDVALSTSGAREGILRGEYSGWDDPRLGTLRAIARRGIRPEAIRKLMVEIGVKIADSTMSWKKIYGLNRSILEEEARRYFFAADPVKLEVVGLPGPVRVERPLHPDHPEIGNRVLELRGEVYLPGDDLGEGPLRLIDAVNVIYSGGELRYHSEGIEEARELGASMIHWVPAESALEAEVIMPDASRVRGVIEADASELEVDDVVQLERFGFARLDSAGPGMVFYYAHK
B4: AE(GC): archaeal glutamyl consensus-derived amber suppressor tRNA, GC base pair at position 10-28 (nucleic acid)
chain: GCCCCGGUGGUGUAGCCCGGCCAAGCACGCGGGCCUCUAAAGCCCGCGACCCGGGUUCAAAUCCCGGCCGGGGCACCA
modifications: chemistry not fully specified
B5: EcERS: E. coli glutamyl-tRNA synthetase, used as a control (protein, UniProt P04805 1-471, looked up)
Glutamate--tRNA ligase: MKIKTRFAPSPTGYLHVGGARTALYSWLFARNHGGEFVLRIEDTDLERSTPEAIEAIMDGMNWLSLEWDEGPYYQTKRFDRYNAVIDQMLEEGTAYKCYCSKERLEALREEQMAKGEKPRYDGRCRHSHEHHADDEPCVVRFANPQEGSVVFDDQIRGPIEFSNQELDDLIIRRTDGSPTYNFCVVVDDWDMEITHVIRGEDHINNTPRQINILKALKAPVPVYAHVSMINGDDGKKLSKRHGAVSVMQYRDDGYLPEALLNYLVRLGWSHGDQEIFTREEMIKYFTLNAVSKSASAFNTDKLLWLNHHYINALPPEYVATHLQWHIEQENIDTRNGPQLADLVKLLGERCKTLKEMAQSCRYFYEDFAEFDADAAKKHLRPVARQPLEVVRDKLAAITDWTAENVHHAIQATADELEVGMGKVGMPLRVAVTGAGQSPALDVTVHAIGKTRSIERINKALDFIAERENQQ
B6: MmERS: glutamyl-tRNA synthetase from M. mazei (protein, listed as Methanosarcina mazeii)
chain: MTLSPEDIKIIEKYALQNAVKYGKAPQPKAVMGKVMGECPQLRADPSGVSAALENIVSEIAKGNPEAWEARLSEIAPELIEALSVKKEPDKGLKPLEGAETGKVVMRFAPNPNGPATLGSSRGMVVNSEYVKVYKGKFILRFDDTDPDIKRPMLEAYDWYMDDFKWLGVVPDQVVRASDRFPIYYDYARKLIEMGKAYVCFCKGEDFKRLKDSKKACPHRDTDPEENLMHWEKMLAGEYEDQQAVLRIKTDIEHKDPALRDWGAFRIRKMSHPRPEIGNKYIVWPLLDFAGAIEDHELGMTHIIRGKDLIDSEKRQTYIYKYFGWTYPKTTHWGRVKIHEFGKFSTSTLRKAIESGEYSGWDDPRLPTIRAIRRRGIRAEALKKFMIEMGVGMTDVSISMESLYAENRKIVDPVANRYFFVWNPVELEIEGMKPVVAKVPRHPTDHARGMREISIENKVLVCAEDIEKLNVGSVLRLKDLCNVEITSLSPLRVKRSETSLEDLKKAKGKIIHWVPVDGIPVKVCGPEGDIEGTGERGIETELDNIVQFERFGFCRIDAVDGENVVAYFAHK

What was measured:
whole halobacterial tRNA = assay: in vitro aminoacylation assay with [3H]-glutamic acid, whole halobacterial tRNA; type: biochemical, Halobacterium sp. NRC-1; details: 750 nM synthetase, 15 minutes at 37° C.
Protocol: (§1) In vitro aminoacylation assays: Reactions were carried out as described previously (see, e.g., Hoben, P. and Soll, D. (1985) Glutaminyl-tRNA synthetase of Escherichia coli. Methods Enzymol., 113:55-59). Each 20-μL reaction contained 50 mM Tris-HCl (pH 7.5), 30 mM KCl, 20 mM MgCl2, 0.1 mg/mL BSA, 5 mM glutathione, 2.5 mM ATP, 100 nM 1-[G-^3H]Glutamic acid (Amersham), 750 nM aminoacyl-tRNA synthetase, and 40 μM whole halobacterial tRNA. Reactions were allowed to proceed for 15 minutes at 37° C.
Orthogonality of archaeal glutamyl-tRNA synthetases in E. coli: The ampicillin IC50 measurements described above provide insights into the orthogonality of consensus-designed tRNAs, but provide no information about the orthogonality of archaeal glutamyl-tRNA synthetases in E. coli. To investigate synthetase orthogonality, the AfERS, MnERS, MtERS, and PhERS genes were inserted into a protein overexpression vector. E. coli glutamyl-tRNA synthetase (EcERS) was inserted into the same vector for use as a control. Synthetases were overexpressed in E. coli, purified to homogeneity, and used in an in vitro aminoacylation assay with whole tRNA prepared from either E. coli or the halophilic archaebacterium Halobacterium sp. NRC-1. […] In these experiments, it is unclear why AfERS and MmERS could not aminoacylate whole halobacterial tRNA in vitro (≦5 pmol/L). Without being limited to one theory, it is possible that the enzyme purification and/or assay conditions employed were deleterious to the aminoacylation activity of AfERS and MmERS. Another possibility is that subtle differences in tRNA identity elements might preclude recognition of a given archaeal tRNA^Glu by all archaeal glutamyl-tRNA synthetases. To test the latter, the activity of MmERS was investigated using the in vitro aminoacylation assay with whole tRNA derived from E. coli expressing the AE(GC) tRNA.

[1] = test system: β-lactamase reporter gene containing an amber mutation at the permissive site Ala184; type: cell-based, E. coli; details: for ampicillin IC50 fold greater with AE(GC) tRNA than with AE(GU) tRNA: same synthetase co-expressed
Protocol: Ampicillin IC50 value measurements: To examine the orthogonality of tRNAs, 10 μL of E. coli DH10B cells (1 cfu/μL) carrying a tRNA-expressing plasmid were plated on a series of LB agar plates containing chloramphenicol and varying concentrations of ampicillin. To measure the IC50 values for cells carrying both tRNA- and synthetase-expressing plasmids, cells were plated on LB agar plates containing chloramphenicol, kanamycin, and varying concentrations of ampicillin. In the initial series, cells were plated on five ampicillin concentrations varying from 0 to 1000 μg/mL and incubated overnight at 37° C. In subsequent series, cells were plated on a narrower ampicillin concentration range surrounding the value initial ampicillin IC50 value estimate. […] Measurements were made in duplicate or triplicate for each cell strain.
Orthogonality of tRNAs: To test the activity and cross-reactivity of the AE(GU), AQ(GU), and AQ(GC) tRNAs, their genes were inserted into plasmid pACKO-A184TAG. E. coli cells were transformed with the resulting plasmids, pAC-AE(GU), pAC-AQ(GU), and pAC-AQ(GC), and the ampicillin IC50 values for the cells were assayed. The tRNA-expressing pAC-based plasmids carry a β-lactamase reporter gene containing an amber mutation at the permissive site Ala184, which serves as a useful reporter for amber codon suppression. Acylation of an amber suppressor tRNA causes the incorporation of the activated amino acid at position 184 of β-lactamase, resulting in suppression of the amber stop codon, production of active full-length β-lactamase and resistance to ampicillin. Because an orthogonal tRNA should not cross-react with endogenous aminoacyl-tRNA synthetases, strains transformed with an orthogonal suppressor tRNA alone should survive only on low concentrations of ampicillin. To assess the orthogonality of designed tRNAs, E. coli transformants were plated on LB agar plates containing varying concentrations of ampicillin (FIG. 2).

whole E. coli tRNA = assay: in vitro aminoacylation assay with [3H]-glutamic acid, whole E. coli tRNA; type: biochemical; details: 750 nM synthetase, 15 minutes at 37° C.
Protocol: as §1
(§2) Orthogonality of archaeal glutamyl-tRNA synthetases in E. coli: The ampicillin IC50 measurements described above provide insights into the orthogonality of consensus-designed tRNAs, but provide no information about the orthogonality of archaeal glutamyl-tRNA synthetases in E. coli. To investigate synthetase orthogonality, the AfERS, MnERS, MtERS, and PhERS genes were inserted into a protein overexpression vector. E. coli glutamyl-tRNA synthetase (EcERS) was inserted into the same vector for use as a control. Synthetases were overexpressed in E. coli, purified to homogeneity, and used in an in vitro aminoacylation assay with whole tRNA prepared from either E. coli or the halophilic archaebacterium Halobacterium sp. NRC-1. […] In these experiments, it is unclear why AfERS and MmERS could not aminoacylate whole halobacterial tRNA in vitro (≦5 pmol/L). […]

[2] = test system: whole tRNA derived from E. coli expressing the AE(GC) tRNA; assay: in vitro aminoacylation assay with whole tRNA from E. coli expressing AE(GC) tRNA; type: biochemical
Protocol: as §1, §2

[3] = synthetase co-expressed with AE(GU) tRNA

Molecule | aminoacylation of whole archaeal (halobacterial) tRNA with [3H]-glutamic acid (whole halobacterial tRNA) | ampicillin IC50 fold greater with AE(GC) tRNA than with AE(GU) tRNA [1] | ampicillin IC50 fold higher than cells expressing AE(GU) alone [1, 3] | also measured
B1 | 1100 pmol/L | ~3.5 fold | 12 fold | amber suppression efficiency fold less than that of the tyrosyl-tRNA synthetase ([1]; together with the AE(GC) tRNA in E. coli): ~2 fold
B2 | – | – | 7 fold | –
B3 | 530 pmol/L | – | 6 fold | –
B4 | – | – | – | ampicillin IC50 fold increase relative to cells expressing AE(GU) tRNA alone ([1]; tRNA alone, no synthetase): 4 fold
B5 | 1.7 pmol/L | – | – | aminoacylation of whole E. coli tRNA with [3H]-glutamic acid (whole E. coli tRNA): 14,000 pmol/L
B6 | – | 4.5 fold | 20 fold | aminoacylation activity [2]: no activity was observed; ampicillin IC50 fold lower than M. jannaschii-derived tyrosine pair [1, 3]: 4.5 fold; ampicillin IC50 fold lower than M. thermoautotrophicum-derived leucine pair [1, 3]: 10 fold
